Data: publication PMC6170785, “Synthetic Fragments of Receptor for Advanced Glycation End Products Bind Beta-Amyloid 1–40 and Protect Primary Brain Cells From Beta-Amyloid Toxicity” (Frontiers in Neuroscience, 2018)

Columns and labels:
[1] = test system: primary cultures of neurons and astrocytes derived from hippocampal and cortical areas of rats' brains; assay: Caspase 3 activity assay (NucView 488) after Aβ 1–42 treatment; type: cell-based, rat; conditions: pre-incubation 3 h with 10 μM peptide, then 1 h with 5 μM Aβ 1–42, NucView 488, confocal, mean (SEM) of N = 6–28 fields
Description: Mixed cultures of hippocampal and cortical neurons and glial cells were prepared as described previously ([Vaarmann et al., 2010]) with modifications, from Sprague-Dawley rat pups 2–4 days post-partum (UCL breeding colony). […] Hippocampi and cortex were removed into ice-cold PBS (Ca^2+, Mg^2+-free, Invitrogen, Paisley, United Kingdom). The tissue was minced and trypsinised (0.25% for 15 min at 37°C), triturated and plated on Poly-D-lysine-coated coverslips and cultured in Neurobasal A medium (Invitrogen, Paisley, United Kingdom) supplemented with B-27 (Invitrogen, Paisley, United Kingdom) and 2 mM L-glutamine. […]
For the measurement of caspase 3 activation, cells were loaded for 15 min at room temperature with 10 μM NucView 488 caspase 3 substrate (Biotium, United States) in HBSS. […] The 488 nm argon laser was used to excite NucView 488 fluorescence, which was measured using a bandpass filter from 510 and 560 nm. […] The number of cells with activated caspase 3 and the number of all visible cells was quantified manually in each field and the percentage of dead cells was calculated by dividing the number of caspase 3-positive cells by the number of all cells counted in one field. The differences between the groups were evaluated using the two-sample t-test. All data were expressed as mean ± SEM. […]

[2] = target: T1, Aβ 1–40 (Homo sapiens, UniProt P05067); assay: Fluorescent titration of RAGE fragments by Aβ 1–40; type: binding; conditions: tryptophan fluorescence titration with Aβ 1–40; 25 mM Tris-HCl, 100 mM NaCl, 5 mM EDTA, pH 7.5; peptide 0.5 μM (P1) or 2 μM (P2–P6); excitation 285 nm, emission 355 nm; mean ± SEM of three independent measurements
T1 construct: Lyophilized synthetic Aβ 1–40 was dissolved in mili-Q water; host or cells: chemical synthesis (synthetic peptide)
T1 sequence (P05067 672-711 limits assumed): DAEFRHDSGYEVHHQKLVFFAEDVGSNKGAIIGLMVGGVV
Description: The fluorescence titrations of synthetic peptides were performed using Fluoromax 3 fluorescence spectrophotometer (Horiba Jobin Yvon, Germany). Titrations were conducted in a quartz cuvette with 2 ml of titration buffer (25 mM Tris-HCl, 100 mM NaCl, 5 mM EDTA, pH 7.5). The concentration of peptide (60–76) which has two tryptophan residues was 0.5 μM. Whereas peptides (60–70), (60–62), (60–65), (62–73), and (65–76) have only one Trp residue, their concentration was 2 μM to enhance the signal. Lyophilized synthetic Aβ 1–40 was dissolved in mili-Q water at a concentration of 1 mM. […]
The fluorescence spectrum was measured after each addition of beta-amyloid. […] Emission was detected in the range of […]. The maximum of fluorescence intensity was found at 355 nm. […]
where [S] – concentration of Aβ 1–40 in cuvette; ΔF is the difference of intensity between experiment in absence of Aβ 1–40 and experiment with beta-amyloid at the certain concentration and ΔFmax is the maximal fluorescence change ([Huang et al., 2016]). […]
The dissociation constant Kd was found by multiplication of the calculated slope factor and ΔFmax. For each peptide the dissociation constant was measured three times independently. Dissociation constants were expressed as mean ± SEM. P-values were measured by Mann-Whitney test to estimate the differences between each of obtained dissociation constants.

[3] = target: Beta-amyloid 1-40 Abeta 1-40 (Homo sapiens, UniProt P05067); assay: tryptophan fluorescence titration
Sequence of Beta-amyloid 1-40 Abeta 1-40 (P05067 1-40): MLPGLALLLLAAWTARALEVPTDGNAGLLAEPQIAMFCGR

**Q.** With “SPQGGGPWDSVA [Peptide P5, synthetic fragment (65–76) of human RAGE]” as the molecule, how does the “Percentage of cells with activated caspase 3, Mean” value [1] read?
**A.** The value was 14.25%.

**Q.** And the “Percentage of cells with activated caspase 3, Mean” value ([1]; SEM)?
**A.** Its value is 14.25 ± 3.22%.

**Q.** And the Kd [2]?
**A.** The Kd was “No binding”.

**Q.** AWKVLSPQGGG [RAGE fragment P2 (60-70)] was tested. Which Kd [3] did it give?
**A.** The Kd was 4060 nM.

**Q.** With AWKVLS [RAGE fragment P4 (60-65)] as the molecule, how does the Kd [3] read?
**A.** The Kd was 2810 nM.

**Q.** Which Kd [3] does the source give for AWKVLSPQGGGPWDSVA [RAGE fragment P1 (60-76)] here?
**A.** The Kd was 1390 nM.

**Q.** Which Kd [3] does the source give for KVLSPQGGGPWD [RAGE fragment P6 (62-73)] here?
**A.** Its Kd is 1530 nM.

**Q.** For AWK [RAGE fragment P3 (60-62)], which Kd [3] is on record?
**A.** The Kd was 840 nM.
